The source of these data is patent US20100272719A1.

In the assay the target is VEGF (isoform not given). Put plainly: cell-based or functional assay.

As to Avastin (bevacizumab) (antibody), the HUVEC tube formation on Matrigel, percent inhibition at 50 µg/ml amounted to 41.3%.

Substance “FP3′ (FLTd2-KDRd3-KDRd4-Fc chimeric fusion protein) (Fc fusion)” showed an HUVEC chemotactic migration (Transwell), percent blocked at 10 µg FP3′ of 78.3%; an HUVEC chemotactic migration (Transwell), percent blocked at 20 µg FP3′ of 94.7%; an HUVEC tube formation on Matrigel, percent inhibition at 50 µg/ml of 72.3%; a VEGF-induced cell proliferation, percent blocked at 10.7 nM FP3′ of 82.6%. The rat aortic ring microvessel sprouting, percent inhibition at 100 µg/ml is 70.4%; the rat aortic ring microvessel sprouting, percent inhibition at 200 µg/ml turned out to be 90%; the rat aortic ring vessel outgrowth, more inhibition than Avastin was in the range of 15 to 33%.
